Assay results reported in article doi:10.1101/2020.03.11.988071 (bioRxiv, 2020).

T1: 4H.01 (synthetic construct (de novo design))
T1 chain: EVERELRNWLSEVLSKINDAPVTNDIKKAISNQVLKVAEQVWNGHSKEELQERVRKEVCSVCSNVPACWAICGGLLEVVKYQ


Target: T1, 4H.01
Test: SPR

Row | Kd [nM] | Binder
1 | 0.5 | Motavizumab IgG (antibody, V domains shown) VH: QVTLRESGPALVKPTQTLTLTCTFSGFSLSTAGMSVGWIRQPPGKALEWLADIWWDDKKHYNPSLKDRLTISKDTSKNQVVLKVTNMDPADTATYYCARDMIFNFYFDVWGQGTTVTVSS VL: DIQMTQSPSTLSASVGDRVTITCSASSRVGYMHWYQQKPGKAPKLLIYDTSKLASGVPSRFSGSGSGTEFTLTISSLQPDDFATYYCFQGSGYPFTFGGGTKVEIK
2 | 200 | 2D10 IgG (antibody, V domains shown) VH: QVQLVQSGPEVKKPGASVRLSCKASGYVFTNYGVSWVRQAPGQGLEWMGWSSPYNGNTYYAQKLKARVTMTTDTSTNTAYMELRSLRSDDTAVYYCGRDMLGVVQAVAGPFDSWGQGTLVTVSS VL: DTPMTQSPSSVSASVGDRVTISCRASQGISNSLAWYQQKLGKAPQLLIYAASSLQSGVPSRFSGSGSGTDFTLTISSLQPEDFATYYCQQTNTFPFTFGPGTKVEVR
